Measured values published in article PMC4360740, “Novel Type II and Monomeric NAD^+ Specific Isocitrate Dehydrogenases: Phylogenetic Affinity, Enzymatic Characterization, and Evolutionary Implication” (Scientific Reports, 2015).
Substitutions are numbered along the chain they refer to. In names and notes the source's numbering stands. Where two headings read alike, the source gives them in different places. Blank lines part the entries; values can stand above or below the molecule they belong to.

Key:
[1] = target: Campylobacter sp. FOBRC14 isocitrate dehydrogenase (Campylobacter sp. FOBRC14); experiment: SEC; Superdex 200 10/300 column, 0.05 M potassium phosphate pH 7.0, 0.15 M NaCl, 0.01% sodium azide, flow 0.5 ml/min; mass estimated against protein standards
CaIDH [2] = test system: T1, CaIDH; conditions: read-out: NADP^+ / Km; 1.0 mM isocitrate fixed; 35 mM Tris-HCl pH 7.5, 2 mM MgCl2 or MnCl2, 25°C; Methods print the second mutation as Asp594Arg
T1 construct: gene IDH

[3] = target: Ostreococcus lucimarinus CCE9901 isocitrate dehydrogenase (Ostreococcus lucimarinus CCE9901); experiment: SEC; Superdex 200 10/300 column, 0.05 M potassium phosphate pH 7.0, 0.15 M NaCl, 0.01% sodium azide, flow 0.5 ml/min; mass estimated against protein standards
[4] = target: Ostreococcus lucimarinus CCE9901 isocitrate dehydrogenase (Ostreococcus lucimarinus CCE9901); experiment: MALDI-TOF/TOF mass spectrometry; AB SCIEX MALDI TOF-TOF 5800, linear high mass positive-ion mode, SA matrix, TFA as ionization auxiliary reagent
[5] = test system: NC(=O)c1ccc[n+]([C@@H]2O[C@H](COP(=O)(O)OP(=O)(O)OC[C@H]3O[C@@H](n4cnc5c(N)ncnc54)[C@H](O)[C@@H]3O)[C@@H](O)[C@H]2O)c1; experiment: purified protein; conditions: 1.0 mM isocitrate fixed, 35 mM Tris-HCl pH 7.5, 2 mM MgCl2 or MnCl2, 25°C, varied: cofactor
[6] = test system: NC(=O)c1ccc[n+]([C@@H]2O[C@H](COP(=O)(O)OP(=O)(O)OC[C@H]3O[C@@H](n4cnc5c(N)ncnc54)[C@H](OP(=O)(O)O)[C@@H]3O)[C@@H](O)[C@H]2O)c1; experiment: purified protein; conditions: 1.0 mM isocitrate fixed, 35 mM Tris-HCl pH 7.5, 2 mM MgCl2 or MnCl2, 25°C, varied: cofactor
CaIDH [7] = test system: T1, CaIDH; conditions: read-out: NAD^+ / Km; 1.0 mM isocitrate fixed; 35 mM Tris-HCl pH 7.5, 2 mM MgCl2 or MnCl2, 25°C; Methods print the second mutation as Asp594Arg
purified protein [8] = substrate: NC(=O)c1ccc[n+]([C@@H]2O[C@H](COP(=O)(O)OP(=O)(O)OC[C@H]3O[C@@H](n4cnc5c(N)ncnc54)[C@H](OP(=O)(O)O)[C@@H]3O)[C@@H](O)[C@H]2O)c1; experiment: purified protein; assay type: biochemical, Micromonas commoda; conditions: 1.0 mM isocitrate fixed, 35 mM Tris-HCl pH 7.5, 2 mM MgCl2 or MnCl2, 25°C, varied: cofactor
purified protein [9] = substrate: NC(=O)c1ccc[n+]([C@@H]2O[C@H](COP(=O)(O)OP(=O)(O)OC[C@H]3O[C@@H](n4cnc5c(N)ncnc54)[C@H](O)[C@@H]3O)[C@@H](O)[C@H]2O)c1; experiment: purified protein; assay type: biochemical, Micromonas commoda; conditions: 1.0 mM isocitrate fixed, 35 mM Tris-HCl pH 7.5, 2 mM MgCl2 or MnCl2, 25°C, varied: cofactor
purified protein [10] = substrate: NC(=O)c1ccc[n+]([C@@H]2O[C@H](COP(=O)(O)OP(=O)(O)OC[C@H]3O[C@@H](n4cnc5c(N)ncnc54)[C@H](OP(=O)(O)O)[C@@H]3O)[C@@H](O)[C@H]2O)c1; experiment: purified protein; assay type: biochemical, Ostreococcus sp. 'lucimarinus'; conditions: 1.0 mM isocitrate fixed, 35 mM Tris-HCl pH 7.5, 2 mM MgCl2 or MnCl2, 25°C, varied: cofactor
purified protein [11] = substrate: NC(=O)c1ccc[n+]([C@@H]2O[C@H](COP(=O)(O)OP(=O)(O)OC[C@H]3O[C@@H](n4cnc5c(N)ncnc54)[C@H](O)[C@@H]3O)[C@@H](O)[C@H]2O)c1; experiment: purified protein; assay type: biochemical, Ostreococcus sp. 'lucimarinus'; conditions: 1.0 mM isocitrate fixed, 35 mM Tris-HCl pH 7.5, 2 mM MgCl2 or MnCl2, 25°C, varied: cofactor

fraction eluting as dimer [1]: < 5%
Molecule: Campylobacter sp. FOBRC14 isocitrate dehydrogenase (enzyme)

Molecule: NC(=O)c1ccc[n+]([C@@H]2O[C@H](COP(=O)(O)OP(=O)(O)OC[C@H]3O[C@@H](n4cnc5c(N)ncnc54)[C@H](OP(=O)(O)O)[C@@H]3O)[C@@H](O)[C@H]2O)c1 [NADP^+]
Km (CaIDH [2]): 11.4 ± 4.6 µM

stoichiometry N [3]: 2
stoichiometry N [4]: 2
Molecule: Ostreococcus lucimarinus CCE9901 isocitrate dehydrogenase (enzyme)

Molecule: CaIDH (Campylobacter sp. FOBRC14)
Km [5]: 28.9 ± 4.5 µM
kcat [5]: 7 ± 0.8 s⁻¹
kcat/Km [5]: 242000 M⁻¹ s⁻¹
Km [6]: 513.2 ± 14.9 µM
kcat [6]: 1.9 ± 0.1 s⁻¹
kcat/Km [6]: 4000 M⁻¹ s⁻¹

Molecule: NC(=O)c1ccc[n+]([C@@H]2O[C@H](COP(=O)(O)OP(=O)(O)OC[C@H]3O[C@@H](n4cnc5c(N)ncnc54)[C@H](O)[C@@H]3O)[C@@H](O)[C@H]2O)c1 [NAD^+]
Km (CaIDH [7]): 493 ± 52.5 µM

B1: MiIDH (Micromonas commoda) (protein)
chain: MAAASAGGKIQAAPMVYVAGEEMTRYTMDLILERWIKPHVDTSAWEFFDLRAKNRDDTEDQVLRDVISAGARLKAIFKEPTITPTADQVKRLGLKKAWGSPNGAMRRGWNGITISRDTIHIDGVELGYKKPVFFERHAVGGEYSAGYKIVGKGKLTTTFVPEAGGEPIVVDDRKITDDLNAVVAYHNPLDNVAHLARIFFGRCLDAGIVPYVVTKKTVFKWQEPFWESMKTVFDAEFKQKFYEKGVMKPGSELVHLLSDAATMKLVVWTDGGFGMAAHNYDGDVLTDELAQVHKSPGFITSNLVGVDDNGTLIKEFEASHGTVTDMDEARLRGEETSLNPLGMVEGLIGAMNHAADVHGGSSGVHPWTGKLRAVIHKLFREGRGTRDLCGAGGLTTEQFIDAVAEEL
notes: full-length synthetic codon-optimised gene in pET-28b(+) NdeI/XhoI, 6xHis-tagged, E. coli Rosetta (DE3); described as homodimeric
Km (purified protein [8]): 1827 ± 42.4 µM
kcat (purified protein [8]): 1.4 ± 0.2 s⁻¹
kcat/Km (purified protein [8]): 800 M⁻¹ s⁻¹
Km (purified protein [9]): 126 ± 5.3 µM
kcat (purified protein [9]): 22.5 ± 2 s⁻¹
kcat/Km (purified protein [9]): 179000 M⁻¹ s⁻¹

B2: OlIDH (Ostreococcus lucimarinus CCE9901) (protein)
chain: MSANASKITAAPMVYVRGEEMTAYVMDLIRAKWIEPRVDTTAWREFDLRAKNRDDTEDQVLRDVIEAGKAVKAIFKEPTVTPTADQVKRLGLRKSWGSPNGAMRRGWNGITISRDTIHIDGVELGYKKPVFFERHAVGGEYAAGYKNVGKGTLVTTFTPSEGPDAGKPVEVDSRTITDNEAAVVTYHNPYDNVHELARFFFGRCLEAKITPYVVTKKTVFKWQEPFWQIMKKVFDEEYKSKFVDAGVMKSGDELVHLLSDAATMKLVQWRQGGFGMAAHNYDGDVLTDELAQIHKSPGFITSNLVGVDENGTLIKEFEASHGTVADMDEARLRGEETSLNPLGMVEGLIGAMNHAADVHNVDKERTLAFTAKMRAVIHQLFREGKGTRDLSGPSGLTTEQFVDAVAERL
notes: full-length synthetic codon-optimised gene in pET-28b(+) NdeI/XhoI, 6xHis-tagged, E. coli Rosetta (DE3); about 46 kDa subunit, 415 residues as used in CD calculation; homodimer 93 kDa by MALDI
Km (purified protein [10]): 2211 ± 75 µM
kcat (purified protein [10]): 10 ± 1.6 s⁻¹
kcat/Km (purified protein [10]): 4500 M⁻¹ s⁻¹
Km (purified protein [11]): 136.6 ± 13.6 µM
kcat (purified protein [11]): 60.6 ± 3.8 s⁻¹
kcat/Km (purified protein [11]): 444000 M⁻¹ s⁻¹

B3: OlIDH (Ostreococcus lucimarinus CCE9901; D326R/M327H) (protein)
chain: B2 chain with D326R, M327H
notes: as for B2
Km (purified protein [10]): 8.2 ± 1.9 µM
kcat (purified protein [10]): 1.8 ± 0.2 s⁻¹
kcat/Km (purified protein [10]): 220000 M⁻¹ s⁻¹
Km (purified protein [11]): 2941.3 ± 75.8 µM
kcat (purified protein [11]): 29.1 ± 7.9 s⁻¹
kcat/Km (purified protein [11]): 10000 M⁻¹ s⁻¹
